Experimental data reported in publication PMC3124598.

Molecular target: TcpP-HSV (wild type, HSV epitope-tagged TcpP) (V. cholerae) (UniProt P29485)
Experiment: […], in 20 mM HEPES pH 7.0, 150 mM NaCl) […]

Sequence of UniProt P29485 (P29485 whole entry): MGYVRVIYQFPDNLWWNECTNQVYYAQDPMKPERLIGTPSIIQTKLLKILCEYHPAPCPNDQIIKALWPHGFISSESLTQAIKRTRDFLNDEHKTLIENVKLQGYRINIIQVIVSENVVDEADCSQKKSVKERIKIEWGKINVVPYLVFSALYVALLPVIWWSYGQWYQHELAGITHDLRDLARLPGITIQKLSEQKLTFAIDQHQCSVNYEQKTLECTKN

ToxR-P101L (chromosomal toxR locus) (natural protein)
percent of wild-type levels of interaction (% of wild-type): 15
